Experimental data reported in article PMC4434323.

Molecular target: T1, unc-120 (D1081.2) (Caenorhabditis elegans) (UniProt Q18955)
T1 sequence: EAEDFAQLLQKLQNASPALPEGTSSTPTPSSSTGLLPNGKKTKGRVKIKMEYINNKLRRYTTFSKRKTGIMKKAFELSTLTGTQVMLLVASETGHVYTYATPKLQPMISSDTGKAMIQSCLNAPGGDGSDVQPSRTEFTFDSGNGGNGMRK

| Sequence | binding signal (PBM E-score (-0.5 to 0.5)) |
| --- | --- |
| TATATGGA (double strand) [8-mer TATATGGA] | 0.478 |
| AAATATGG (double strand) [8-mer AAATATGG] | 0.474 |
| CCATAAAA (double strand) [8-mer CCATAAAA] | 0.459 |
| CATATATG (double strand) [8-mer CATATATG] | 0.468 |
| ATATATGG (double strand) [8-mer ATATATGG] | 0.486 |
| GCCTTATA (double strand) [8-mer GCCTTATA] | 0.47 |
| TATAAGGA (double strand) [8-mer TATAAGGA] | 0.472 |
| CCTTATAA (double strand) [8-mer CCTTATAA] | 0.474 |
| ACCTTATA (double strand) [8-mer ACCTTATA] | 0.466 |
| TACCATAA (double strand) [8-mer TACCATAA] | 0.462 |
| CATATAAG (double strand) [8-mer CATATAAG] | 0.466 |
| AAATAAGG (double strand) [8-mer AAATAAGG] | 0.464 |
| ATATAAGG (double strand) [8-mer ATATAAGG] | 0.478 |
| CCATATAA (double strand) [8-mer CCATATAA] | 0.465 |

Molecular target: T2, C07E3.6 (C07E3.6) (Caenorhabditis elegans) (UniProt Q17792)
T2 sequence: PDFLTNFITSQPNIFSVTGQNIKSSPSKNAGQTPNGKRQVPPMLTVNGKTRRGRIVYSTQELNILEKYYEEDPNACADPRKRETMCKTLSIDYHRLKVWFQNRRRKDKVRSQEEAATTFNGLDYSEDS

| Sequence | binding signal (PBM E-score (-0.5 to 0.5)) |
| --- | --- |
| CATAATTA (double strand) [8-mer CATAATTA] | 0.495 |

Molecular target: T3, daf-12 (F11A1.3) (Caenorhabditis elegans) (UniProt G5EFF5)
T3 sequence: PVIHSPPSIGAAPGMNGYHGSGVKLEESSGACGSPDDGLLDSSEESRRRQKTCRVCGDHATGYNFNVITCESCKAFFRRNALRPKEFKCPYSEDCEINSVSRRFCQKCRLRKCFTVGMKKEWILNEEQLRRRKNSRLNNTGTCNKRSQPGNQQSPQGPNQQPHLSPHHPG

| Sequence | binding signal (PBM E-score (-0.5 to 0.5)) |
| --- | --- |
| AAGTACAA (double strand) [8-mer AAGTACAA] | 0.493 |
| AAGTGCAG (double strand) [8-mer AAGTGCAG] | 0.492 |
| AAGTACAT (double strand) [8-mer AAGTACAT] | 0.495 |
| AAAGTGCA (double strand) [8-mer AAAGTGCA] | 0.498 |
| TAAGTACA (double strand) [8-mer TAAGTACA] | 0.492 |
| TAAGTGCA (double strand) [8-mer TAAGTGCA] | 0.496 |
| AAGTGCAT (double strand) [8-mer AAGTGCAT] | 0.495 |
| AAGTGCAA (double strand) [8-mer AAGTGCAA] | 0.496 |
| CAAGTGCA (double strand) [8-mer CAAGTGCA] | 0.493 |

Molecular target: T4, ceh-23 (ZK652.5) (Caenorhabditis elegans) (UniProt P34663)
T4 sequence: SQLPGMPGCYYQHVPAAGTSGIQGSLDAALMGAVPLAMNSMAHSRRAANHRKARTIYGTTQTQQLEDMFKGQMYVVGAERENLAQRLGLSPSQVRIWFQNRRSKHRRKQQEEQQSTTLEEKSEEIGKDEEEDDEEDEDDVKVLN

| Sequence | binding signal (PBM E-score (-0.5 to 0.5)) |
| --- | --- |
| CATAATTA (double strand) [8-mer CATAATTA] | 0.493 |

Molecular target: T5, T07C12.11 (T07C12.11) (Caenorhabditis elegans) (UniProt G5EGG9)
T5 sequence: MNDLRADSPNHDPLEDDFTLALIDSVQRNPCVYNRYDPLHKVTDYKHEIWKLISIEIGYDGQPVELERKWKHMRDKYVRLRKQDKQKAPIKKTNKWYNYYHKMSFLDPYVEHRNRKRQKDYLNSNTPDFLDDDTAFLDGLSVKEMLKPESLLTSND

| Sequence | binding signal (PBM E-score (-0.5 to 0.5)) |
| --- | --- |
| GTTACGTA (double strand) [8-mer GTTACGTA] | 0.49 |
| ACGTAAGG (double strand) [8-mer ACGTAAGG] | 0.488 |
| ACGTAAGA (double strand) [8-mer ACGTAAGA] | 0.486 |
| ATACGTAA (double strand) [8-mer ATACGTAA] | 0.491 |
| TACGTAAA (double strand) [8-mer TACGTAAA] | 0.488 |
| ACGTAAGC (double strand) [8-mer ACGTAAGC] | 0.487 |
| CTTACGTA (double strand) [8-mer CTTACGTA] | 0.495 |
| CTTGCGCA (double strand) [8-mer CTTGCGCA] | 0.489 |
| CTTGCGTA (double strand) [8-mer CTTGCGTA] | 0.487 |
| AACGTAAG (double strand) [8-mer AACGTAAG] | 0.486 |
| CTTACGCA (double strand) [8-mer CTTACGCA] | 0.487 |

Molecular target: T6, atf-6 (F45E6.2) (Caenorhabditis elegans) (UniProt Q20435)
T6 sequence: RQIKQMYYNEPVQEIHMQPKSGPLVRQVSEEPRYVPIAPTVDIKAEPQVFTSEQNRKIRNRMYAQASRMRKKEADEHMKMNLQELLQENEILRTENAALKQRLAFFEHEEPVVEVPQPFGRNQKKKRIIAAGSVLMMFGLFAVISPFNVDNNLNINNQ

| Sequence | binding signal (PBM E-score (-0.5 to 0.5)) |
| --- | --- |
| CTTACGTA (double strand) [8-mer CTTACGTA] | 0.456 |

Molecular target: T7, nhr-42 (C33G8.6) (Caenorhabditis elegans) (UniProt O76828)
T7 sequence: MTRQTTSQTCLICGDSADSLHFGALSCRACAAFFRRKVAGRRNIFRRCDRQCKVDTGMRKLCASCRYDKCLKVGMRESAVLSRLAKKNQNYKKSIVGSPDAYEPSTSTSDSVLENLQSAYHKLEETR

| Sequence | binding signal (PBM E-score (-0.5 to 0.5)) |
| --- | --- |
| GACTACGC (double strand) [8-mer GACTACGC] | 0.484 |
| CACTACGA (double strand) [8-mer CACTACGA] | 0.485 |
| GACTACGA (double strand) [8-mer GACTACGA] | 0.487 |
| ACTACGAT (double strand) [8-mer ACTACGAT] | 0.482 |
| ACACTACG (double strand) [8-mer ACACTACG] | 0.493 |
| CGTAGTCA (double strand) [8-mer CGTAGTCA] | 0.48 |
| AGTCACAT (double strand) [8-mer AGTCACAT] | 0.481 |
| ACTACGAA (double strand) [8-mer ACTACGAA] | 0.486 |
| AGACTACG (double strand) [8-mer AGACTACG] | 0.492 |

Molecular target: T8, nhr-46 (C45E5.6) (Caenorhabditis elegans) (UniProt Q95QR2)
T8 sequence: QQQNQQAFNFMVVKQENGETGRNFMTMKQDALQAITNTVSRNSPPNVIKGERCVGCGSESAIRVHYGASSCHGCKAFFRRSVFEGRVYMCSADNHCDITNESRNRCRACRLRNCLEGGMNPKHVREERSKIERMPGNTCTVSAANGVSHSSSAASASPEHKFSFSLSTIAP

| Sequence | binding signal (PBM E-score (-0.5 to 0.5)) |
| --- | --- |
| ATGATCTC (double strand) [8-mer ATGATCTC] | 0.46 |
| AGATCAAA (double strand) [8-mer AGATCAAA] | 0.473 |
| TAGATCAA (double strand) [8-mer TAGATCAA] | 0.465 |
| AGATCAAG (double strand) [8-mer AGATCAAG] | 0.466 |
| AAGATCAT (double strand) [8-mer AAGATCAT] | 0.476 |

Molecular target: T9, ceh-18 (ZC64.3) (Caenorhabditis elegans) (UniProt P41934)
T9 sequence: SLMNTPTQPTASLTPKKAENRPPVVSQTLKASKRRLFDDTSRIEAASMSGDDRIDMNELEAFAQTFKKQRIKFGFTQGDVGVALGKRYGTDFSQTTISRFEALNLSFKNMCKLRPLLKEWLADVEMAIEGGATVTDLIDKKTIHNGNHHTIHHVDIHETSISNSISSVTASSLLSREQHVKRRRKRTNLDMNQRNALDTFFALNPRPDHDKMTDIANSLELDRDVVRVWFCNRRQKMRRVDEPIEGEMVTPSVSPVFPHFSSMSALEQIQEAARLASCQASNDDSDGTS

| Sequence | binding signal (PBM E-score (-0.5 to 0.5)) |
| --- | --- |
| ATATGCAC (double strand) [8-mer ATATGCAC] | 0.477 |
| AATATGCA (double strand) [8-mer AATATGCA] | 0.482 |
| ATATGCAT (double strand) [8-mer ATATGCAT] | 0.486 |
| TATGCATA (double strand) [8-mer TATGCATA] | 0.497 |
| ATGCATAA (double strand) [8-mer ATGCATAA] | 0.495 |
| AATATTCA (double strand) [8-mer AATATTCA] | 0.477 |
| ATGAATAA (double strand) [8-mer ATGAATAA] | 0.477 |
| AATTATGC (double strand) [8-mer AATTATGC] | 0.484 |
| TTATGCAA (double strand) [8-mer TTATGCAA] | 0.476 |
| ATTATGCA (double strand) [8-mer ATTATGCA] | 0.496 |
| TGCATAAA (double strand) [8-mer TGCATAAA] | 0.476 |
| CATATGCA (double strand) [8-mer CATATGCA] | 0.478 |
| CATAATTA (double strand) [8-mer CATAATTA] | 0.483 |
| GAATATTC (double strand) [8-mer GAATATTC] | 0.494 |
| TATGCAAA (double strand) [8-mer TATGCAAA] | 0.486 |

Molecular target: T10, nhr-142 (F44E7.8) (Caenorhabditis elegans) (UniProt J7SF93)
T10 sequence: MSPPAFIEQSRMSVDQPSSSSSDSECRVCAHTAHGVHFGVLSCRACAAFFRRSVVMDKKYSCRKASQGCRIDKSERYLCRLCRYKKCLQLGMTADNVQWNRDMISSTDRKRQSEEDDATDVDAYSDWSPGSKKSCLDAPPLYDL

| Sequence | binding signal (PBM E-score (-0.5 to 0.5)) |
| --- | --- |
| GAGTCACA (double strand) [8-mer GAGTCACA] | 0.485 |
| GTCATAAA (double strand) [8-mer GTCATAAA] | 0.484 |
| CAGTCACA (double strand) [8-mer CAGTCACA] | 0.483 |

Molecular target: nhr-34 (F58G6.5) (Caenorhabditis elegans) (UniProt Q21006)
Sequence (Q21006 99-268): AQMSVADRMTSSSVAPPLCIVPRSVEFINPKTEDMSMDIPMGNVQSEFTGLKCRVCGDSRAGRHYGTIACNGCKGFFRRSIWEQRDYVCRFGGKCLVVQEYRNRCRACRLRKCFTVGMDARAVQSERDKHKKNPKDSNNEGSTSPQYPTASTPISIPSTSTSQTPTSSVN

| Sequence | binding signal (PBM E-score (-0.5 to 0.5)) |
| --- | --- |
| GAGTTCAA (double strand) [8-mer GAGTTCAA] | 0.471 |
| GGAGATCA (double strand) [8-mer GGAGATCA] | 0.473 |
| GAGACCAA (double strand) [8-mer GAGACCAA] | 0.475 |
